US20260193317A1, “COMBINATION THERAPY WITH ACTRIIB RECEPTOR VARIANTS AND GLP-1 AGONISTS” (35PHARMA Inc., priority 2023, published 2026)
Where two headings read alike, the source gives them in different places.

How the values were obtained:
activin A [1] = molecular target: T1, activin A (Homo sapiens, UniProt P08476); assay: Small-scale activin A ELISA with CHO supernatants; details: 1 μg/mL protein, 30 ng/mL activin A, loss of signal = binding
T1 sequence (P08476 311-426): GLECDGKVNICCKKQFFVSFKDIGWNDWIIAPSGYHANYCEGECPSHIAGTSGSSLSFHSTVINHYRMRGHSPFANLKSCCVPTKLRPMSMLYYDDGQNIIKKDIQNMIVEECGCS
Experimental: Small-scale testing of ActRIIB-ECD fusion proteins. Additional investigation of a series of exemplary agents was performed using proteins expressed in CHO cells. Briefly, DNA encoding the ActRIIB-ECD-Fc fusion constructs was transfected in cells seeded in 12-well plates in a final volume of 1 ml. After 7 days, the supernatant was harvested, clarified, and the amount of expressed protein in each well was quantified using standard methods. The potency of each agent for inhibition of activin A, BMP-9 and BMP-10 was determined in three separate assays.
The next day, the plate was washed three times with buffer (Biolegend #421601). […] Expressed proteins in the supernatants described above were diluted to 2 μg/mL in assay diluent (0.5% BSA, 0.05% tween-20 in PBS), mixed 1:1 with recombinant human activin A (R&D #338-AC, 60 ng/mL, diluted in assay diluent). Complexes were immediately added to the 96-well plate in technical duplicates and incubated for 1 h at RT (concentration of expressed protein and activin A on the plate were 1 μg/mL and 30 ng/mL, respectively). […] In this assay, a loss of signal indicates binding of the exemplary agent to activin A, which prevents activin A binding to the anti-activin A antibody on the plate. Results are expressed as a % of the signal obtained with wild-type ActRIIB-Fc (P75).

[2] = tested on: follicle-stimulating hormone (FSH); assay: FSH production in DIO mice; format: in vivo; details: 3 weeks of treatment
Experimental: Experiments were performed to assess the effects of P1229 on body composition and metabolism in diet-induced obese (DIO) mice. DIO mice were purchased from Jackson Laboratories (#380050). Briefly, mice were fed a high-fat diet (HFD, 60% kcal from fat) from 6 weeks of age until 22 weeks of age (total of 16 weeks on the HFD). […] After 3 weeks of treatments, some animals were sacrificed and scanned by EchoMRI […] (FIGS. 11A-F), while others were sacrificed for tissue collection and RNA analysis. Animals were maintained on the HFD throughout the acclimatization and treatment periods. The murine version of bimagrumab used for these experiments comprises the heavy chain amino acid sequence of SEQ ID NO: 376 and the light chain sequence of SEQ ID NO: 377.
Follicle-stimulating hormone (FSH) is a known biomarker of in vivo target engagement for activin receptor-based traps (See Attie et al. (2013). Muscle Nerve, 47: 416-423). To further validate in vivo target engagement for exemplary agents, FSH production was evaluated in DIO mice, as described above.

[3] = mouse, in vivo, sc
Experimental: Evaluation of pharmacokinetic profiles.
To determine the concentration of P1229 in mouse serum samples, a 96-well plate was coated 1 h at RT with a solution of anti-ectodomain antibody (1 μg/mL in carbonate buffer, 100 μL/well). The plate was then washed three times with buffer (Biolegend #421601). Blocking buffer (1% BSA, 0.05% tween-20 in TBS, 300 μL/well) was added to each well and the plate was incubated for 1 hour at RT with shaking at 300 rpm. The plate was washed three times and Standards, QCs and sample were diluted in assay diluent (1% BSA, 0.05% tween-20 in TBS, 100 μL/well) and loaded in duplicate on the plate for 1 h30 at RT with shaking at 300 rpm. The plate was washed three times and a solution of anti-human Fc antibody conjugated to HRP (Southern Biotech #2049-05, diluted 1 in 20,000 in assay diluent, 100 μL/well) was added to each well and incubated for 1 h at RT with shaking at 300 rpm.

GDF-8 = GDF-8 (Homo sapiens, UniProt O14793); assay: TGFβ-reporter HEK293 cell-based assay: GDF-8 neutralization; details: for IC50: read-out: CBA Potency GDF-8; for CBA potency GDF-8, potency fold-change: relative to reference (P1372 = 1)
Experimental: Potency testing by neutralization on cell-based assays. Characterization of the activin A, activin B, GDF-8, and GDF-11 inhibition potency (IC50) of the fusion proteins was performed using a cell-based reporter assay. TGFβ-reporter HEK293 cells were obtained from InvivoGen (San Diego, CA, cat. no. hkb-tgfb) and were maintained following the manufacturer's instructions. Briefly, cells were grown in high-glucose DMEM, containing 10% heat-inactivated FBS, 30 μg/mL blasticidin, 250 μg/mL hygromycin B, and 100 μg/mL zeocin (hereafter, “growth medium”). Once the cells reached 70-80% confluence, they were detached in growth medium by gently tapping on the flask. For all assays, cells were seeded in 96-well plates at a density of 20,000 cells per well in growth medium. Cells were left to attach for 10 minutes at room temperature (RT) prior to being transferred to a 37° C. incubator (5% CO2) overnight. The next day, treatments were prepared by combining the appropriate concentration of agent with activin A, activin B, GDF-8, or GDF-11 for 30 min at RT (shaking at 150 rpm). Treatments were conducted in high-glucose DMEM (serum-free and with no selection agents), and the final concentration of cytokine (ligand) was 0.3 nM. Growth medium was removed from the culture plates, and cells were treated with the appropriate mixes of fusion protein and cytokine. Treatment duration was for 18-22 h at 37° C. (5% CO2). All treatments were performed in technical duplicates and at least one or two independent experiments were conducted for each cytokine. At the end of the treatment period, supernatants were transferred to a new plate, and centrifuged at 300 RPM for 3 min. Forty microlitres of supernatant from each condition was transferred to a new plate, into which 180 μL of Quanti-Blue reagent (InvivoGen, cat. no. rep-qbs) was added. Quanti-Blue reagent was prepared following the manufacturer's instructions. Samples were incubated for 45 min at 37° C. At the end of the incubation, absorbance was read at 650 nm. The data were plotted in GraphPad Prism, which was used to calculate IC50 values as a non-linear regression.

activin A [4] = molecular target: T1, activin A; assay: Potency testing by ELISA: activin A binding; details: for ELISA potency Activin A, potency fold-change: relative to reference (P1372 = 1)
Source text: Potency testing by ELISA. […] The next day, the plate was washed three times with buffer (Biolegend #421601).

[5] = Co-formulation study of ectodomain-based traps with incretin mimetics (monomer content by SEC / RP-HPLC, integrity, stability); format: physicochemical
Experimental: In each case, the following parameters were assessed: a) monomer content (size exclusion chromatography), b) activin A and GDF-8 neutralization (cell-based assays [CBAs]), c) activin A binding (ELISA), d) GLP-1 receptor binding (ELISA).
In each case, the following parameters were assessed: a) monomer content (size exclusion chromatography), b) activin A and GDF-8 neutralization (cell-based assays [CBAs]), and c) GLP-1 receptor activation (CBA).
Given that protein aggregation can be indicative of reduced conformational stability and decreased activity, Size-Exclusion Chromatography-High Performance Liquid Chromatography (SEC-HPLC) was used to determine the purity of each ActRIIB-ECD construct. This method measured the percentage of intact monomeric species as well as the presence of aggregates and/or degradation products.
In some instances, the method used to assess the purity of an agent was based on a reversed-phase high-performance liquid chromatography (RP-HPLC) setup with a C18 column. The mobile phases consisted of acetonitrile with 0.1% formic acid (organic phase) and water with 0.1% formic acid (aqueous phase). […] Formic acid anions form an ion pair with positively charged peptides, increasing their hydrophobicity and therefore their retention time. Detection was performed using a UV detector, at 280 nm.

[6] = D 7 after storage at room temperature
[7] = D 28, storage at room temperature

Q: For “P1229: hActRIIB L33W, 14 aa linker, IgG1-DL Fc; SEQ ID 211”, which “activin A binding, ELISA signal relative to P75” value (activin A [1]) is on record?
A: potent activin A binding

Q: What about the FSH production [2] of the same molecule?
A: significant decreases in FSH production

Q: What about the “PK profile alone versus in the co-formulation” value [3] of the same molecule?
A: comparable PK profile

B1: P1372: hActRIIB L33W, 14 aa linker, IgG1 YTE-DL Fc; SEQ ID 231 (protein)
chain: ETRECIYYNANWELERTNQSGLERCEGEQDKRWHCYASWRNSSGTIELVKKGCWLDDFNCYDRQECVATEENPQVYFCCCEGNFCNERFTHLPEAGGPEVTYEPPPTGGGGSGGGGSGGGGTHTCPPCPAPELLGGPSVFLFPPKPKDTLYITREPEVTCVVVDVSHEDPEVKFNWYVDGVEVHNAKTKPREEQYNSTYRVVSVLTVLHQDWLNGKEYKCKVSNKALPAPIEKTISKAKGQPREPQVYTLPPSRDELTKNQVSLTCLVKGFYPSDIAVEWESNGQPENNYKTTPPVLDSDGSFFLYSKLTVDKSRWQQGNVFSCSVMHEALHNHYTQKSLSLSPG
Q: Which “CBA potency GDF-8, fold-change vs reference” value (from here on “CBA potency GDF-8, fold-change”) (GDF-8; D 0) does the source give for B1 here?
A: 1 (ref)

Q: And the IC50 (GDF-8; D 0)?
A: 0.27 nM

Q: What about the IC50 (GDF-8; D 7, 2-8° C.) of the same molecule?
A: 0.22 nM

Q: And the IC50 (GDF-8; D 7, RT)?
A: 0.24 nM

Q: And the “CBA potency GDF-8, fold-change” value (GDF-8; D 7 after storage at 2-8° C.)?
A: 1 (ref)

Q: And the “CBA potency GDF-8, fold-change” value (GDF-8; [6])?
A: 1 (ref)

Q: What about the IC50 (GDF-8; D 14, 2-8° C.) of the same molecule?
A: 0.35 nM

Q: What about the IC50 (GDF-8; D 14, RT) of the same molecule?
A: 0.36 nM

Q: What about the IC50 (GDF-8; D 28, 2-8° C.) of the same molecule?
A: 0.45 nM

Q: What about the IC50 (GDF-8; D 28, RT) of the same molecule?
A: 0.44 nM

Q: What about the “CBA potency GDF-8, potency fold-change” value (GDF-8; D 28, storage at 2-8° C.) of the same molecule?
A: 1 (ref) fold

Q: And the “CBA potency GDF-8, potency fold-change” value (GDF-8; [7])?
A: 1 (ref) fold

Q: What about the IC50 (GDF-8; D 56, 2-8° C.) of the same molecule?
A: 0.34 nM

Q: And the IC50 (GDF-8; D 56, RT)?
A: 0.36 nM

Q: What about the “ELISA potency Activin A, fold-change vs reference” value (activin A [4]; D 0) of the same molecule?
A: 1 (ref)

Q: What about the “ELISA potency Activin A, fold-change vs reference” value (activin A [4]; D 7 after storage at 2-8° C.) of the same molecule?
A: 1 (ref)

Q: And the “ELISA potency Activin A, fold-change vs reference” value (activin A [4]; [6])?
A: 1 (ref)

Q: And the “ELISA potency Activin A, potency fold-change” value (activin A [4]; D 28, storage at 2-8° C.)?
A: 1 (ref) fold

Q: And the “ELISA potency Activin A, potency fold-change” value (activin A [4]; [7])?
A: 1 (ref) fold

Q: What about the “Monomer content P1372” value ([5]; D 0, P1372 40 mg/mL, semaglutide […], pH 7.5) of the same molecule?
A: 99.3%

Q: What about the “Monomer Content (%) P1372” value ([5]; D 0, P1372 40 mg/mL, tirzepatide 10 mg/mL, 10 mM NaPO4, 100 mM Glycine, 75 mM sucrose (pH 7.5)) of the same molecule?
A: 98.9%

Q: What about the “Monomer Content (%) P1372” value ([5]; D 7, 2-8° C.) of the same molecule?
A: 98.9%

Q: And the “Monomer Content (%) P1372” value ([5]; D 7, RT)?
A: 98.8%

Q: And the “Monomer content P1372” value ([5]; D 7 after storage at 2-8° C.)?
A: 99.3%

Q: And the “Monomer content P1372” value [5, 6]?
A: 99.2%

Q: What about the “Monomer Content (%) P1372” value ([5]; D 14, 2-8° C.) of the same molecule?
A: 98.8%

Q: And the “Monomer Content (%) P1372” value ([5]; D 14, RT)?
A: 97.9%

Q: What about the “Monomer Content (%) P1372” value ([5]; D 28, 2-8° C.) of the same molecule?
A: 98.9%

Q: What about the “Monomer Content (%) P1372” value ([5]; D 28, RT) of the same molecule?
A: 98.6%

Q: What about the “Monomer content P1372” value ([5]; D 28, storage at 2-8° C., 10 mM NaPO4, 100 mM glycine, 75 mM sucrose pH 7.5) of the same molecule?
A: 99.2%

Q: What about the “Monomer content P1372” value ([5]; D 28, storage at room temperature, 10 mM NaPO4, 100 mM glycine, 75 mM sucrose pH 7.5) of the same molecule?
A: 98.8%

Q: What about the “Monomer Content (%) P1372” value ([5]; D 56, 2-8° C.) of the same molecule?
A: 98.8%

Q: And the “Monomer Content (%) P1372” value ([5]; D 56, RT)?
A: 98.4%
